Here are results for 8 molecules from patent US7700101B2, “Reagents and method for modulating Dkk-mediated interactions” (Wyeth, priority 2001, dated 2010).

The Kd is the concentration at which binding is half-saturated.

Substitutions are numbered along the chain they refer to. Names may count otherwise. “Also recorded” adds a separate entry of the source.

Assay [1] has as its system Wnt pathway (TCF-luciferase reporter). The assay is described as follows: TCF-luciferase assay of LRP5 variants in U2OS cells. The assay is classed as cell-based, human. Conditions: for susceptibility to modulation by Dkk / activation of TCF-luciferase reporter construct: U2OS cells; for susceptibility to modulation by Dkk: in the presence of Dkk1 and Wnt1; for activation of TCF-luciferase reporter construct: in the presence of Wnt. The source says:
Site-directed mutants of LRP5 were generated in the full-length human LRP5 cDNA using the QuikChange XL-Site-Directed Mutagenesis Kit (catalog #200516, Stratagene, La Jolla, Calif.) following the manufacturers protocol. The mutant sequences were introduced using complementary synthetic oligonucleotides:
All constructs were sequence verified to ensure that only the engineered modification was present in the gene. Once verified, each variant was functionally evaluated in the TCF-luciferase assay in U2OS cells (essentially as described in Example 7. Other functional evaluations could also be performed, such as the Xenopus embryo assay (essentially as described in Example 6), or other assays to evaluate Wnt signaling, Dkk modulation, or anabolic bone effect. Binding of these mutants to Dkk, LRP-interacting proteins, Dkk-interacting proteins, or peptide aptamers to any of the preceding could also be investigated in a variety of ways such as in a two-hybrid system (such as in yeast as described in this application), or other methods.
U2OS human osteosarcoma cells were also utilized. U2OS cells (ATCC) were seeded into 96-well plates at 30,000 cells per well in 200 ul of the growth media (McCoy's 5A) containing 10% (v/v) heat-inactivated FBS, 1X penicillin streptomycin, and 1×Glutamax-1, and incubated overnight at 37° C. The following day, the media was replaced with OptiMEM (Invitroge) and cells were transfected using […] (as described by the manufacturer, Invitrogen) with. 0.005 μg/well of LRP5, HBM, LRP6 or contoI plasmid DNA (empty vector pcDNA3.1) and either Wnt1 (0.0025 ug/well) or Wnt3a (0.0025 ug/well) plasmid DNA. In addition, the 16x-(AS) TCF-TK-firefly-luciferase (Ramesh Bhat, WHRI, Wyeth) and control TK-renilla luciferase (Promega Corp.) were co-transfected at 0.3 ug/well and 0.06 ug/well respectively in all experiments. […] In other experiments, cells were co-transfected with 0.005 μg/well of LRP5, 0.0025 ug/well of Wnt1 or Wnt3 a (using […] of a control pcDNA3.1) with LRP5-interacting aptamers (0.05 ug/well). Cells were cultured for an additional 18-20 hours at 37° C. Culture medium was removed. Cells were then lysed with 100 μl/well of 1X Passive Lysis Buffer (PLB) of Dual Luciferase Reagent kit (DLR-kit-Promega Corp.) 20 μl of the lysates were combined with LARII reagent of DLR-kit and assayed for TCF-firefly luciferase signal in Top Count (Packard) instrument. After measuring the Firefly readings, 100 μl of the “Stop and Glo” reagent of DLR kit that contains a quencher and a substrate for renilla luciferase was added into each well. Immediately the renilla luciferase reading was measured using the Top Count (Packard) Instrument. The ratios of the TCF-firefly luciferase to control renilla readings were calculated for each well and the mean ratio of triplicate or more wells was expressed in all data.
In general terms: A reporter such as luciferase makes a cellular process visible.

Another assay deals with endogenous LRP5/6. The assay is described as follows: Cell-based TCF reporter high-throughput assay, endogenous LRP5/6. Also noted: species or system human. Conditions: U2OS cells. The source says:
To develop a high throughput assay, the TCF-luciferase assay described in Example 7 was modified utilizing low level expression of endogenous LRP5/6 in U2OS and HEK293 cells. […] Using U2OS (human osteosarcoma) and HEK293 (ATCC) cells, the TCF-luciferase and tk-Renilla reporter element constructs were co-transfected along with Wnt3a/1 and Dkk.

In another assay the test system is canonical Wnt signaling. Conditions: Semenov et al.; cited from earlier work.
For a further assay, the system named is LRP5 LBD. The assay is described as follows: Yeast-2 hybrid interaction trap LRP5 LBD-LexA / Gal4AD-Dkk. Conditions: FIG. 18. The assay is classed as binding. The source says:
Small molecule inhibitors (or partial inhibitors) of the Dkk-LRP interaction may be an excellent osteogenic therapeutic. One way to investigate this important protein-protein interaction is using Y2H techniques substantially as described above and as is well known in the art. […] This interaction is quantitated using a reporter element known in the art, e.g., LacZ or luciferase, which is only activated when bait and prey interact. The Y2H assay is used to screen for compounds which modulate the LRP-Dkk interaction. Such a modulation would be visualized by a reduction in reporter element activation signifying a weaker or disrupted interaction, or by an enhancement of the reporter element activation signifying a stronger interaction. Thus, the Y2H assay can be used as a high-throughput screening technique to identify compounds which disrupt or enhance Dkk interaction with LRP5/LRP6/HBM, which may serve as potential therapeutics.
For example, the Interaction Trap methodology can be used as follows. […] With the LRP5LBD-LexA bait and the Gal4AD-Dkk prey, over a 20-fold activation of a lacZ reporter (under the control of a single LexA operator) was detected over the background. […] As a result, small molecules may be identified that modulate this interaction between LRP and Dkk.

Assay [2] has as its target T1, LRP6 (Homo sapiens, UniProt O75581). Conditions: cited from earlier work.
Target sequence in this assay (O75581 20-1613, species assumed): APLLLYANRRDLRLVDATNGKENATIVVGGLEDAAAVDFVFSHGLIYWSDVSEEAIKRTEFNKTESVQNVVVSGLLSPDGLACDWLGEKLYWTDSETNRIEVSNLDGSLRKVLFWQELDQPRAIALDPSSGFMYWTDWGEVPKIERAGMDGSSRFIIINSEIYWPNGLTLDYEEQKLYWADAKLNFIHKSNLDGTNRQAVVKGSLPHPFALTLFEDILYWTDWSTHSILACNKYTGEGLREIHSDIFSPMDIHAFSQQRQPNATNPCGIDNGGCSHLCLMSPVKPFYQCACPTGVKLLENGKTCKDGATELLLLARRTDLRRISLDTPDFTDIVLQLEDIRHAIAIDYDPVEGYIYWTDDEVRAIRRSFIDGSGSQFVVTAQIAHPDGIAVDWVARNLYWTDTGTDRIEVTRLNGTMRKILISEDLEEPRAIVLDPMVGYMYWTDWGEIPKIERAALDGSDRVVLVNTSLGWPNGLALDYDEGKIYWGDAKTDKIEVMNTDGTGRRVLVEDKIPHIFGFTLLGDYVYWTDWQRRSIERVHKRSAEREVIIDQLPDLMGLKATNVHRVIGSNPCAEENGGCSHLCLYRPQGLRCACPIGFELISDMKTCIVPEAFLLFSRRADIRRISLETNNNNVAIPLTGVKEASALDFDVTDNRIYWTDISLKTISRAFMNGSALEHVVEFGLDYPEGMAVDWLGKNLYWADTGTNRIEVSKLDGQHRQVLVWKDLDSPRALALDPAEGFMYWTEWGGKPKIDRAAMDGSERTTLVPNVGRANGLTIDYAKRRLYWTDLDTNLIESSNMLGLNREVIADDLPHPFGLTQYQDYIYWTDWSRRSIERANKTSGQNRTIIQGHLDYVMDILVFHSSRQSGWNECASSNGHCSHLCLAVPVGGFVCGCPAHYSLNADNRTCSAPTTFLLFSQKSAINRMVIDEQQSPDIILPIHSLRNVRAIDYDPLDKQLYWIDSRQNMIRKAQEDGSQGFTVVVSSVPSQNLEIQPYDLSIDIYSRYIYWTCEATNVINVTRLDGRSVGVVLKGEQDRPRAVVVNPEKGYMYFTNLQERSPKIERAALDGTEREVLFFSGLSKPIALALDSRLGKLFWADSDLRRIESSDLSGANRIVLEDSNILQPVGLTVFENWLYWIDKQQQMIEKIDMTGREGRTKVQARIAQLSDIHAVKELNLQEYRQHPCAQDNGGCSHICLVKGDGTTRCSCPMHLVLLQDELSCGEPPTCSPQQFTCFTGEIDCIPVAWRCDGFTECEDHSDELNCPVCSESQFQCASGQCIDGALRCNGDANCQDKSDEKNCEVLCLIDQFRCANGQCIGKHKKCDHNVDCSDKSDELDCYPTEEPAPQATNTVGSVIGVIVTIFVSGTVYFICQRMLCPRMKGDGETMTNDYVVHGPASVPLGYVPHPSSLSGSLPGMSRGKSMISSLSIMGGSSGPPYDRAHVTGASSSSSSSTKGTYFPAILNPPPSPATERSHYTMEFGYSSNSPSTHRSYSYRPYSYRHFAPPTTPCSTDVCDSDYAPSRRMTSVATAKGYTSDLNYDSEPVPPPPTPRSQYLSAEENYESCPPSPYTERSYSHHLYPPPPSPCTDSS
The next assay has as its target T2, HBM (Homo sapiens, UniProt O75197, G171V).
T2 construct: Full length Zmax/LRP5 and HBM ORF cDNA; expressed in transfected cells; host or cells: HOB-03-CE6 osteoblastic cells; U2OS osteosarcoma cells; HEK293
The assay is described as follows: TCF-luciferase assay in HOB-03-CE6 cells, HBM. The assay is classed as cell-based. As to conditions: Wnt3a, FIG. 15. As to the method: (§1) HOB-03-CE6 osteoblastic cells developed by Wyeth Ayerst (Philadelphia, Pa.) were seeded into 24-well plates at 150,000 cells per well in 1 ml of the growth media (D-MEM/F12 phenol red-free) containing 10% (v/v) heat-inactivated FBS, 1×penicillin streptomycin, and 1X Glutamax-1, and incubated overnight at 34° C. The following day, the cells were transfected using Lipofectamine 2000® (as described by the manufacturer, Invitrogen) in OptiMEM (Invitrogen) with 0.35 μg/well of LRP5, HBM, or control plasmid DNA (empty vector pcDNA3.1) and either Wnt1 or Wnt3 a plasmid DNA. […] All wells were transfected with 0.025 μg/well of CMV beta-galactosidase plasmid DNA and 0.35 μg/well 16X TCF(ASyluciferase reporter DNA (developed by Ramesh Bhat, Wyeth-Ayerst (Philadelphia, Pa.)). After 4 hours of incubation, the cells were rinsed and 1 ml of fresh growth media was added to each well. The cells were cultured overnight at 34° C., followed by a wash and a change of media. Cells were cultured for an additional 18-24 hours at 37° C. Cells were then lysed with 50 μl/well of 1X lysis buffer. The extracts were assayed for beta-galactosidase activity (Galacto Reaction Buffer Diluent & Light Emission Accelerator, Tropix) using 5 μl extract+50 μl beta-galactosidase diluent and luciferase activity (Luciferase Assay Reagent, Promega) using 20 μl extract.

The target in assay [3] is T1, LRP6. The assay is described as follows: TCF-luciferase assay in HOB-03-CE6 cells, LRP6. The assay is classed as cell-based. Also noted: Full length LRP6 was isolated from the pED6dpc4 vector; expressed in transfected cells; host or cells: HOB-03-CE6 osteoblastic cells; U2OS osteosarcoma cells; HEK293.
Target sequence in this assay (O75581 20-1613): as the sequence (O75581 20-1613, species assumed) above
Another assay concerns the target T3, LRP5 (Homo sapiens, UniProt O75197).
T3 construct: Site-directed mutants of LRP5 were generated in the full-length human LRP5 cDNA; expressed in transfected cells; host or cells: HOB-03-CE6 osteoblastic cells; U2OS osteosarcoma cells; HEK293
The assay is described as follows: TCF-luciferase assay in HOB-03-CE6 cells, LRP5. The assay is classed as cell-based. Conditions: Wnt3a, FIG. 15. As to the method:
as §1, with “DNA. Similar experiments were performed with LRP6 plasmid DNA (0.35 μg/well) or a control pEDdpc4 empty vector.” for “DNA.”

LRP5 LBD, sequence (as listed by the source): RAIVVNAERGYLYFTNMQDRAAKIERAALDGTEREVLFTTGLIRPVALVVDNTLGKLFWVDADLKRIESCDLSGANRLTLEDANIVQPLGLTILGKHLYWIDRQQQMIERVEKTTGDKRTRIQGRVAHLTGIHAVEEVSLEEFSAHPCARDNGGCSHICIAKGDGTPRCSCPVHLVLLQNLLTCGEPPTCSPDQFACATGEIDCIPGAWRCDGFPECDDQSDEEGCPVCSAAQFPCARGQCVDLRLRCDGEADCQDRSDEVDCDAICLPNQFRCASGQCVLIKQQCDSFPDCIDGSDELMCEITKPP
T3 sequence (O75197 32-1615): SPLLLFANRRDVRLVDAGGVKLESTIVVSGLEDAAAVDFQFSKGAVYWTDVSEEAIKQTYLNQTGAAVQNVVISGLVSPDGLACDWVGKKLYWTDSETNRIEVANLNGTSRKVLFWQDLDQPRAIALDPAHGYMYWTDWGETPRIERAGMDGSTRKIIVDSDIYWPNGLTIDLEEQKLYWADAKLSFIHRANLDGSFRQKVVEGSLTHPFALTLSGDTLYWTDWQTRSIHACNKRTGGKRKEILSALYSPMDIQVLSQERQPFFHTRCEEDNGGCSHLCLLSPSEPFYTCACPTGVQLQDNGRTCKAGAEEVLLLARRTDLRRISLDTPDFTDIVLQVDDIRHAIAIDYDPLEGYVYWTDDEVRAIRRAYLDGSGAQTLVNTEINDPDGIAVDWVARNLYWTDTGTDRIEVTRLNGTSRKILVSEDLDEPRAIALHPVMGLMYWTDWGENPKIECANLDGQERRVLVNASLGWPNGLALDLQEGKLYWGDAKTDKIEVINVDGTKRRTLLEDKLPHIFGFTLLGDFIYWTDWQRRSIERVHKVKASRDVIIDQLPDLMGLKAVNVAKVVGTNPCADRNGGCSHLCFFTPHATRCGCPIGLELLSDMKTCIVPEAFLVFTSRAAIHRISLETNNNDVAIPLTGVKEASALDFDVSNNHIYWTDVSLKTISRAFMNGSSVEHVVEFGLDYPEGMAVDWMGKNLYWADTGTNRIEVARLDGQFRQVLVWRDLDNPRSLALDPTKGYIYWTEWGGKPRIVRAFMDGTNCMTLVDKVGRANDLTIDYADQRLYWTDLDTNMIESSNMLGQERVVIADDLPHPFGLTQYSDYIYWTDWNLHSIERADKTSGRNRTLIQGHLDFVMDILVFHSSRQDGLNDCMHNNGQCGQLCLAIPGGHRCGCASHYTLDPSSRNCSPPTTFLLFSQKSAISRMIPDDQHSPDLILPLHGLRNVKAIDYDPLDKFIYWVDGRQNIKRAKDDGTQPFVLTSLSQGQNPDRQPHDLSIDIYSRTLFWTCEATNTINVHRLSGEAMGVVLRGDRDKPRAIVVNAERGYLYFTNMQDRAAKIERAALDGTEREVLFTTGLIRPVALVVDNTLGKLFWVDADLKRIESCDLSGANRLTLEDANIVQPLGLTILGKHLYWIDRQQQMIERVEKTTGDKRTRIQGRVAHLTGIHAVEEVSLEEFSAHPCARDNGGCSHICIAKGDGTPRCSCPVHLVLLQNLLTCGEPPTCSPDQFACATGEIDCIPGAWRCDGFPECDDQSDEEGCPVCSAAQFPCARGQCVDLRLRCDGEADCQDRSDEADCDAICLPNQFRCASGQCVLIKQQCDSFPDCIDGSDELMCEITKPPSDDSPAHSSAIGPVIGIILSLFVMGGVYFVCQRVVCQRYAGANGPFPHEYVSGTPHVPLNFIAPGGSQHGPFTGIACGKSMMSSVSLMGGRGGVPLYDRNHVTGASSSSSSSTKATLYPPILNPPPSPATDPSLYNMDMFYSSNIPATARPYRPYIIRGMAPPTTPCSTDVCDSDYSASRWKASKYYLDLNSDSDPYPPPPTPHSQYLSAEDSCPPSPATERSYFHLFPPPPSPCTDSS
T2 sequence (O75197 32-1615 G171V): as the sequence (O75197 32-1615) above, with G140V counted along it

For “A214V: site-directed variant of human LRP5, position equivalent to 171 in blade 5”, in assay [1], the “HBM effect / HBM activity” value is “demonstrated HBM activity”.
As to “G171F: site-directed variant of human LRP5 in propeller 1, introduces a ringed side-chain”, in assay [1], the “HBM effect / HBM activity” value is reported as “results in an HBM effect; also recorded: demonstrated HBM activity”, the “susceptibility to modulation by Dkk” value was “less susceptible than LRP5” and the “activation of TCF-luciferase reporter construct” value was “greater activation of the Wnt pathway than LRP5; also recorded: able to activate the TCF-luciferase reporter construct”.
Take “G171K: site-directed variant of human LRP5, introduces a charged side-chain”: the “HBM effect / HBM activity” value in assay [1] is listed as “demonstrated HBM activity”.
For “G171Q: site-directed variant of human LRP5, introduces the propeller 4 residue”, in assay [1], the “HBM effect / HBM activity” value was “demonstrated HBM activity”.
Turning to “M282V: site-directed variant of human LRP5, accessible interior position in blade 1”, in assay [1], the “HBM effect / HBM activity” value is “results in an HBM-effect; also recorded: demonstrated HBM activity”, the “susceptibility to modulation by Dkk” value is reported as “less susceptible than LRP5” and the “activation of TCF-luciferase reporter construct” value is “activation of the Wnt pathway; also recorded: able to activate the TCF-luciferase reporter construct”.

B1: Dkk-1-AP: Dkk-1 modified with alkaline phosphatase (protein)
chain: TLNSVLNSNAIKNLPPPLGGAAGHPGSAVSAAPGILYPGGNKYQTIDNYQPYPCAEDEECGTDEYCASPTRGGDAGVQICLACRKRRKRCMRHAMCCPGNYCKNGICVSSDQNHFRGEIEETITESFGNDHSTLDGYSRRTTLSSKMYHTKGQEGSVCLRSSDCASGLCCARHFWSKICKPVLKEGQVCTKHRRKGSHGLEIFQRCYCGEGLSCRIQKDHHQASNSSRLHTCQRH
modifications: left off: large carriers
notes: Dkk-1 modified with alkaline phosphatase
As to B1, in the assay with endogenous LRP5/6 (no Wnt3a/Wnt1 transfection, FIG. 21), the “modulation of TCF signal without Wnt DNA transfection” value was “can be modulated”.

B2: Dkk-1 mutant (C220A): Dkk-1 mutant where cysteine 220 was changed to alanine (protein)
chain: B1 chain with C189A
On to B2, for which the “repression of Wnt signaling” value in the assay with canonical Wnt signaling is “unable to repress Wnt signaling”. For the same molecule, the “interaction with LRP5 in yeast” value in the assay with LRP5 LBD was “interaction was reduced”; in the assay with LRP5 LBD (listed as mutant Dkk-1 (C220A)) it was “unable to bind to LRP5”. In addition, in the assay on endogenous LRP5/6 (Wnt3a, FIG. 19), the “repression of Wnt3a-mediated TCF reporter signaling” value is “lack of TCF-reporter inhibition”. Moreover, the LRP6 binding result with LRP6 [2] (Semenov et al.) is “abolished LRP6 binding”.

B3: Dkk-2: human Dickkopf-2, Dkk family member, full length cDNA (protein, UniProt Q9UBU2 1-259, looked up)
chain: MAALMRSKDSSCCLLLLAAVLMVESSQIGSSRAKLNSIKSSLGGETPGQAANRSAGMYQGLAFGGSKKGKNLGQAYPCSSDKECEVGRYCHSPHQGSSACMVCRRKKKRCHRDGMCCPSTRCNNGICIPVTESILTPHIPALDGTRHRDRNHGHYSNHDLGWQNLGRPHTKMSHIKGHEGDPCLRSSDCIEGFCCARHFWTKICKPVLHQGEVCTKQRKKGSHGLEIFQRCDCAKGLSCKVWKDATYSSKARLHVCQKI
modifications: full-length
notes: human Dickkopf-2, Dkk family member, full length cDNA
For the molecule B3, the “HBM/Wnt3a mediated TCF-luciferase activity” value with HBM was “able to antagonize the TCF-luciferase activity”. Moreover, in the assay with LRP6 [3] (Wnt1, FIG. 14), the “LRP6/Wnt1 mediated TCF-luciferase activity” value is on record as “had no effect”. For the same molecule, the “LRP6/Wnt3a mediated TCF-luciferase activity” value with LRP6 [3] (Wnt3a, FIG. 15) is “able to antagonize LRP6/Wnt3a mediated TCF-luciferase activity”. Besides, the “LRP5/Wnt3a mediated TCF-luciferase activity” value with LRP5 is listed as “able to antagonize the TCF-luciferase activity”. For the same molecule, the Kd in the assay with LRP6 [2] (Mao et al., classical biochemical ligand-receptor studies) was 0.73 nM.
